The results in this text go back to publication PMC10538386 (Bioconjugate chemistry, 2023).

Series [1] deals with the molecule itself. Put plainly: transmission electron microscopy.
Series [2] concerns the molecule itself. Briefly: SEC. (In gel filtration, larger molecules generally elute earlier.)

B1: PhMV Cys1+2 (A31C S137C) coat protein, assembled as virus-like particles (natural protein, Physalis mottle virus)
chain: MDSSEVVKVKQASIPAPGSILSQPNTEQSPCIVLPFQFEATTFGTAETAAQVSLQTADPITKLTAPYRHAQIVECKAILTPTDLAVSNPLTVYLAWVPANSPATPTQILRVYGGQSFVLGGAISAAKTIEVPLNLDCVNRMLKDSVTYTDTPKLLAYSRAPTNPSKIPTASIQISGRIRLSKPMLIAN
B1: the binding result in series [1] is recorded as “binds”.

B2: PhMV Cys1 (A31C) coat protein, assembled as virus-like particles (natural protein, Physalis mottle virus)
chain: MDSSEVVKVKQASIPAPGSILSQPNTEQSPCIVLPFQFEATTFGTAETAAQVSLQTADPITKLTAPYRHAQIVECKAILTPTDLAVSNPLTVYLAWVPANSPATPTQILRVYGGQSFVLGGAISAAKTIEVPLNLDSVNRMLKDSVTYTDTPKLLAYSRAPTNPSKIPTASIQISGRIRLSKPMLIAN
On to B2, for which the binding result in series [2] was “binds”.

B3: PhMV Cys2 (S137C) coat protein, assembled as virus-like particles (natural protein, Physalis mottle virus)
chain: MDSSEVVKVKQASIPAPGSILSQPNTEQSPAIVLPFQFEATTFGTAETAAQVSLQTADPITKLTAPYRHAQIVECKAILTPTDLAVSNPLTVYLAWVPANSPATPTQILRVYGGQSFVLGGAISAAKTIEVPLNLDCVNRMLKDSVTYTDTPKLLAYSRAPTNPSKIPTASIQISGRIRLSKPMLIAN
Take B3: the binding result in series [2] is listed as “binds”.
